From patent publication US20210244792A1

Molecular target: complement C5
Experiment: direct binding to C5 (FIG. 4C); method not described

Substance “EV576 protein (native, purified from salivary gland extracts of the soft tick Ornithodoros moubata) (from UniProt Q5YD59 19-168)” has an IC50 of 20 µg/mL.
